# Changes are numbered by the printed parent chain.
# T1: ASIC1a (Homo sapiens, UniProt P78348)
# T1 construct: expressed in transfected cells
# T1 sequence (P78348 1-528): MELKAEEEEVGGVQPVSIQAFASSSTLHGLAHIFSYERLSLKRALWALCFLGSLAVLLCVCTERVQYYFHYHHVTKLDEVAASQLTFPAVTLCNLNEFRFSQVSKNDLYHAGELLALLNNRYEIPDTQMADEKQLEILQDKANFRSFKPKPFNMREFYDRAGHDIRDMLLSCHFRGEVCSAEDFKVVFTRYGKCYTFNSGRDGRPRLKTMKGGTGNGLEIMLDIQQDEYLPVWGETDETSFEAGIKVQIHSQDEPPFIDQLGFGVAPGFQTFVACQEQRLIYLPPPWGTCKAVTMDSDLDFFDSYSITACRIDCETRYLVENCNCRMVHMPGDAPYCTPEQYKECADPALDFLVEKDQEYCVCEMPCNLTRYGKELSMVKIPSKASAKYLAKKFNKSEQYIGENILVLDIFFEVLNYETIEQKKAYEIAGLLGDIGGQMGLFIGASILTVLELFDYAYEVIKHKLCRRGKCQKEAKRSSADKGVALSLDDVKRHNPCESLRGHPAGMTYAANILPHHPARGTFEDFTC
# T2: hASIC1a on CHO-K1 cells stably expressing hASIC1a (human, UniProt P78348 1-528)
# T2 sequence (looked up): T1 sequence (P78348 1-528)
# T3: human ASIC2a (hASIC2a-eYFP) (Homo sapiens, UniProt Q16515)
# T3 construct: expressed in transfected cells; host or cells: CHO-K1 (transient)
# T3 sequence (Q16515 1-512): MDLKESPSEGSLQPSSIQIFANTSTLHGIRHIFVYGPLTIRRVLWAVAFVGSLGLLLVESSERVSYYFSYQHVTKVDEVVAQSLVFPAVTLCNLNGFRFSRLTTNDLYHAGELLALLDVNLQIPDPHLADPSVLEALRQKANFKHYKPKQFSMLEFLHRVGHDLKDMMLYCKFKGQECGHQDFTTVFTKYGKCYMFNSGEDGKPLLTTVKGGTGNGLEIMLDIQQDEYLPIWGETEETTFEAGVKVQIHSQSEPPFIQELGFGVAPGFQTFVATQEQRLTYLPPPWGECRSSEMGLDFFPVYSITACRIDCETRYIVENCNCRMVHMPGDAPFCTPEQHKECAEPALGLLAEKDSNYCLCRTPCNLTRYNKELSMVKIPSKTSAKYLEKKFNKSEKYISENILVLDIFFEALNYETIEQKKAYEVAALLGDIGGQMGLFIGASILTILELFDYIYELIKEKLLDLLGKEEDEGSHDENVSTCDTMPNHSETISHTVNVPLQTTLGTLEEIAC
# T4: human ASIC3a (hASIC3a-eYFP) (Homo sapiens, UniProt Q9UHC3)
# T4 construct: expressed in transfected cells; host or cells: CHO-K1 (transient)
# T4 sequence (Q9UHC3 1-531): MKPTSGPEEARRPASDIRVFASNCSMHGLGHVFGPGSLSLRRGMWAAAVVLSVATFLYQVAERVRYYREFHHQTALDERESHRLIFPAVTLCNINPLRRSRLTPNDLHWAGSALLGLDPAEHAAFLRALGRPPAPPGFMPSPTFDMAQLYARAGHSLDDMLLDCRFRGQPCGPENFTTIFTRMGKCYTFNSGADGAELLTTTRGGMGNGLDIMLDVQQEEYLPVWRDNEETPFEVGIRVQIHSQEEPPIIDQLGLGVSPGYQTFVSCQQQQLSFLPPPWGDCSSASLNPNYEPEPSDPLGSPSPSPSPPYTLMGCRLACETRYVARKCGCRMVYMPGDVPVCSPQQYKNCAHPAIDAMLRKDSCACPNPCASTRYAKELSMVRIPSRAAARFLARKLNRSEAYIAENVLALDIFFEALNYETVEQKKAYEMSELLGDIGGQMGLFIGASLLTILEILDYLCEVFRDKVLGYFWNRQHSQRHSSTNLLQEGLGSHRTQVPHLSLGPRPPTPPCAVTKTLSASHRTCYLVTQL
# B1: ASC06-IgG1: parental (WT) ASIC1a-specific antagonist antibody; VL SEQ ID NO: 2, VH SEQ ID NO: 7, VH-CDR3 DSFYGYSKGD (antibody, V domains shown)
# VH: QVQLQQSGGGLVQPGGSLRLSCAASGFTFSSYAMSWVRQAPGKGLEWVSAISGSGGSTYYADSVKGRFTISRDNSKNTLYLQMNSLRAEDTAVYYCAKDSFYGYSKGDWGQGTLVTVSS
# VL: QSALTQPASVSGSPGQSITISCTGTSSDVGAYNYVSWYQQQPGKAPKLMIYGVSNRPSGVSNRFSGSKSGNAASLTISGLQAEDEADYYCSSYTSSSTYVFGTGTKLTVLG
# modifications: IgG1 constant regions; Amino acid sequence VH of ASC06; Amino acid sequence VL of ASC06
# B2: ASC06-01-IgG1 (antibody, V domains shown)
# VH: B1 VH with F101Y, Y102F
# VL: B1 VL
# notes: Full length IgG1
# B3: ASC06-02-IgG1 (antibody, V domains shown)
# VH: B1 VH with Y102F, Y104R, S105A, D108S
# VL: B1 VL
# notes: Full length IgG1
# B4: ASC06-04-IgG1 (antibody, V domains shown)
# VH: B1 VH with Y104R, S105A, D108V
# VL: B1 VL
# notes: Full length IgG1
# B5: ASC06-IgG1 (antibody, V domains shown)
# VH: B1 VH
# VL: B1 VL
# notes: Tested as full length IgG1; also called WT antibody ASC06-IgG1; parental ASC06-IgG1 antibody
# B6: ASC06-01-IgG1: affinity-matured ASC06 derivative, VH-CDR3 DSYFGYSKGD (SEQ ID NO: 11) (antibody, V domains shown)
# VH: B1 VH with F101Y, Y102F
# VL: B1 VL
# B7: ASC06-02-IgG1: affinity-matured ASC06 derivative, VH-CDR3 DSFFGRAKGS (SEQ ID NO: 13) (antibody, V domains shown)
# VH: B1 VH with Y102F, Y104R, S105A, D108S
# VL: B1 VL
# B8: ASC06-04-IgG1: affinity-matured ASC06 derivative, VH-CDR3 DSFYGRAKGV (SEQ ID NO: 17) (antibody, V domains shown)
# VH: B1 VH with Y104R, S105A, D108V
# VL: B1 VL
# B9: ASC06-03-IgG1: affinity-matured ASC06 derivative, VH-CDR3 DSFYGRAKGS (SEQ ID NO: 15) (antibody, V domains shown)
# VH: B1 VH with Y104R, S105A, D108S
# VL: B1 VL
# Biological target: T1, ASIC1a
# Experiment: FLIPR-based fluorescent membrane potential (FMP) assay
# Type: cell-based
# Details: increasing doses, pH 6
# Description: A fluorescence-based assay using the FLIPR Membrane Potential Assay Kit (FMP kit) (Molecular Devices) was used for functional characterization of ASC06-IgG1 and the affinity-matured derivatives thereof. Specifically, the role of ASIC1a in acidosis and the effect of the antibodies of current disclosure was probed further. The FMP dye in the kit is a lipophilic, anionic, bis-oxonol dye, which permits a sensitive evaluation of changes in membrane potential with a more rapid response time. Using the FMP kit, a sensitive cell-based assay to detect acid-induced ASIC1a currents was developed using a cell line stably expressing ASIC1a. The ASIC1a-expressing stable cells were seeded in 96-well plates. The cells were treated with different concentrations of ASC06-IgG1. Untreated cells were used as a negative control. ASIC1a was stimulated by inducing acidosis by decreasing the extracellular pH to 6, and the changes in the fluorescent signal of the FMP dye were measured. An isotype control was used as a negative control for binding. […] The assay was applied to detect the efficiency of inhibition of ASIC1a currents by ASC06-IgG1, and affinity-matured derivatives thereof.
# Using similar assays, the IC50 values for inhibition of ASIC1a currents were calculated based on the maximal fluorescent intensity of each concentration of antibodies compared to the negative control.
row,Molecule,inhibition of the fluorescent intensities (ASIC1a-mediated current)
1,B1,dose-dependent inhibition

# Biological target: T2, hASIC1a on CHO-K1 cells stably …
# Experiment: cell-based or functional assay
# Details: not given
row,Molecule,"IC50 for the inhibition of ASIC1a currents, FMP assay [nM]"
1,B2,74
2,B3,30.5
3,B4,51.8
4,B5,251

# Biological target: T3, human ASIC2a (hASIC2a-eYFP)
# Experiment: FACS-based binding assay, transiently transfected CHO-K1 cells (isotype selectivity)
# Details: not given
# Description: (§1) To examine the ASIC isotype selectivity of ASC06-IgG1 affinity-matured antibodies, plasmids encoding fusion proteins of eYFP with isoforms of […] were constructed. These plasmids included those encoding human ASIC1b (hASIC1b-eYFP), human ASIC2a (hASIC2a-eYFP), and human ASIC3a (hASIC3a-eYFP). CHO-K1 cells were transiently transfected with these plasmids and used in a FACS-based binding assay disclosed herein. Binding of ASC06-IgG1 to CHO-K1 cells expressing human ASIC1a-eYFP (hASIC1a-eYFP) was used as a positive control (data not shown and FIG. 2), and an isotype control was used as a negative control for binding (NC).
row,Molecule,binding to the hASIC2a isoform
1,B6,no detectable binding
2,B7,no detectable binding
3,B8,no detectable binding
4,B9,no detectable binding
5,B1,no detectable binding

# Biological target: T4, human ASIC3a (hASIC3a-eYFP)
# Experiment: as above
# Details: not given
# Description: as §1
row,Molecule,binding to the hASIC3a isoform
1,B6,no detectable binding
2,B7,no detectable binding
3,B8,no detectable binding
4,B9,no detectable binding
5,B1,no detectable binding

# Biological target: T1, ASIC1a
# Experiment: FLIPR-based assay of ASIC1a-mediated calcium influx
# Type: cell-based
# Details: increasing doses, pH 6
# Method: The calcium influx of the ASIC1a channel was measured using a Fluorescence Imaging Plate Reader (FLIPR) instrument by measuring the fluorescent signal generated by the intracellular calcium indicator dye Calcium 5 (Molecular Devices) in a stable cell line expressing hASIC1a-m Cherry fusion.
# The inhibition to calcium influx the affinity-matured ASC06-IgG1 derivative antibodies was also measured using the FLIPR-based assay. Using these assays, the IC50 values were calculated based on the maximal fluorescent intensity of the intracellular calcium indicator dye.
row,Molecule,inhibition of calcium influx
1,B1,dose-dependent inhibition
